According to patent US20040002450A1, “Y17 - isolated molecules comprising epitopes containing sulfated moieties, antibodies to such epitopes, and uses thereof” (priority 2000, published 2004):

B1: Y1-cys-kak: Y1 scFv with cysteine and lysine-alanine-lysine at the carboxyl end, forms a dimer; SEQ ID NO: 212 (protein)
scFv: MEVQLVESGGGVVRPGGSLRLSCAASGFTFDDYGMSWVRQAPGKGLEWVSGINWNGGSTGYADSVKGRFTISRDNAKNSLYLQMNSLRAEDTAVYYCARMRAPVIWGQGTLVTVSRGGGGSGGGGSGGGGSSELTQDPAVSVALGQTVRITCQGDSLRSYYASWYQQKPGQAPVLVIYGKNNRPSGIPDRFSGSSSGNTASLTITGAQAEDEADYYCNSRDSSGNHVVFGGGTKLTVLGGGGCKAK
B2: Y17 scFv: second human scFv clone selected on platelets; SEQ ID NO: 203, heavy chain CDR3 SEQ ID NO: 20 (protein, listed as Homo sapiens)
scFv: MKYLLPTAAAGLLLLAAQPAMAEVQLVESGGGVVRPGGSLRLSCAASGFTFDDYGMSWVRQAPGKGLEWVSGINWNGGSTGYADSVKGRFTISRDNAKNSLYLQMNSLRAEDTAVYYCARLTHPYFWGQGTLVTVSRGGGGSGGGGSGGGGSSELTQDPAVSVALGQTVRITCQGDSLRSYYASWYQQKPGQAPVLVIYGKNNRPSGIPDRFSGSSSGNTASLTITGAQAEDEADYYCNSRDSSGNHVVFGGGTKLTVLGAAAEQKLISEEDLNGAA

Experiments:
[1] = molecular target: T1, GPIb (glycocalicin) derived from platelets (Homo sapiens, UniProt P07359); assay: ELISA to GC (glycocalicin), monomer versus dimer; type: binding
T1 construct: glycocalicin (soluble, extracellular fragment of GPIbα); from tissue; host or cells: human platelets
Procedure: An ELISA assay was performed to ascertain the differences in binding between the monomer (the Y1 scFv-also known as Y1-kak) and the dimer Y1-cys-kak (the cysteine dimer) for antigen GPIb (glycocalicin) derived from platelets. A polyclonal anti single chain antibody and/or a novel polyclonal anti-VL (derived from rabbits) and anti-rabbit HRP, were used to detect the binding to GPIb. […] For instance, to reach 0.8 OD units 12.8 μg/ml of monomer was used compared to only 0.1 μg/ml of dimer.
100 ml of purified glycocalicin was incubated in a 96 flat well maxisorp plates, overnight at 4 degrees celsius. The plate was washed with PBST (PBS+0.05% tween) 3 times, then […] of PBST-milk (PBST+2% Non fat milk), for 1 hr at room temperature. The plate was washed with PBST, and the monomer or dimer (100 ml) was added in PBST-milk at different concentrations for 1 hr at room temp. Then the plate was washed and anti-VL polyclonal (derived from immunized rabbits with VL derived from Y1) (1:100 diluted in PBST-milk) was added for an hour. The plate was washed and anti-rabbit HRP was added for an additional hour. The plate was washed 5 times and 100 μl TMB substrate was added for approximately 15 minutes then 100 μl of 0.5H2SO4 was added to stop the reaction. The optical density of the plate was measured at 450 nm in an ELISA reader.

[2] = test system: platelet-rich-plasma (PRP); assay: Ristocetin-induced aggregation of platelet-rich-plasma after scFv preincubation; type: cell-based, human
Procedure: The effect of Y1 (scFv) on aggregation of platelet-rich-plasma (PRP) was tested at various concentrations of Y1. PRP was pre-incubated with Y1 scFv, Y17 scFv, or a control sTM-1cFv for 4 min at 37° C. before being exposed to ristocetin, an inducer of platelet agglutination and aggregation. A reversible inhibitory effect was observed when scFv was added to PRP prior to the addition of ristocetin, and it was dose dependent.
Blood was collected into a tube containing 3.8% sodium citrate. Platelet-rich plasma was prepared by centrifugation at 250×g for 10 minutes.
(§1) For platelet aggregation studies, platelet rich plasma (PRP) and washed platelets were stirred at 500 rpm at 37° C. in whole blood Lumiaggregometer (Chronolog, Havertown, Pa.). The difference in light transmission through the platelet suspension and suspending medium was taken as 100% aggregation. The effect of Y1 on platelet aggregation was evaluated by addition of different concentration of Y1 before the addition of agonist, and the effect was recorded for four minutes.

[3] = test system: platelet GPIbα; assay: Western blot/FACS of endoprotease-cleaved platelet GPIbα and glycocalicin; type: binding, human; settings: immunoblots and FACS
Excerpt: (§2) Immunoblotting and endoprotease cleavage techniques were used to identify the epitope for Y1 on the surface membrane of platelets.
(§3) The enzyme O-Sialoglycoprotein endoprotease from Pasteurella haemolytica (Cedarlan CLE 100) selectively cleaves human platelet GPIb and specifically cleaves only proteins containing sialylated, O-linked glycans. […] This enzyme has been reported to cleave GPIb, which is heavily O-glycosylated, but not GPIIb-IIIa or other receptors on platelets. GPIbα was digested with O-Sialoglycoprotein endoprotease in order to further establish the binding of Y1 to the molecule.
(§4) Mocarhagin [Sigma L4515a] is a cobra venom metalloproteinase that cleaves platelet GPIbα specifically at a single site between residues glu-282 and asp-283, thereby generating two stable products: a ˜45-kDa N-terminal fragment (His1-Glu282), which is released into the supernatant, and a membrane-bound ˜95 kDa C-terminal fragment.
(§5) Cathepsin G (Sigma C4428), a neutrophil serine protease, cleaves glycocalicin at a first cleavage site between residues Leu-275 and Tyr-276 and at a second cleavage site between residues Val-296 and Lys-297. Cathepsin G treatment of glycocalicin generates two N-terminal fragments: a small N-terminal 42 kDa fragment (His1-Leu275), a large N-terminal 45 kDa N-terminal fragment (His1-Val-296), and corresponding ˜95 kDa C-terminal fragments. (FIG. 1).
(§6) For mocarhagin digestion, 10^8 washed platelets in TS buffer (0.01 M Tris, 0.15 M sodium chloride, pH 7.4) containing 1 mM calcium chloride were treated with 12 μg/ml mocarhagin (final concentration) for 1 hour at 22° C. and digestion was stopped by adding EDTA to 0.01 M.
(§7) 10^6 platelets in 0.1 M Tris buffer pH 7.4 containing 0.2% albumin and protease inhibitors (10 μM leupeptin, 0.24 mM PMSF) was incubated with 0.14 mg/ml O-Sialoglycoprotein endoprotease (final concentration) for 45 min at 37° C. and digestion was stopped by adding sample buffer and boiling. The sample buffer used contained 3% SDS, 12% glycerol, 50 mM Tris HCl, 2% β-mercaptoethanol, and 0.03% bromphenol blue.
(§8) For mocarhagin digestion, glycocalicin in TS buffer containing 1 mM calcium chloride was incubated with 10 μg/ml mocarhagin (final concentration) for 1 hour at 22° C. and digestion was stopped by adding EDTA to 0.01 M.
(§9) For cathepsin G digestion, glycocalicin in TS buffer containing 1 mM calcium chloride was incubated with 3.4 μg/ml cathepsin G (final concentration) for 4 hour at 22° C. and digestion was stopped by adding PMSF to 1 mM.

[4] = molecular target: T2, platelet GPIbα (Homo sapiens, UniProt P07359); assay: as above; type: binding
T2 construct: endogenous in cells; host or cells: washed human platelets (blood-bank platelet concentrate)
Excerpt: as §2, §3, §4, §5, §6, §7, §8, §9

[5] = test system: washed platelets; assay: Ristocetin-induced agglutination of washed platelets after scFv preincubation; type: cell-based, human
Procedure: Aggregation is determined in PRP due to the presence of thrombotic agents, while agglutination is determined in washed platelets. The effect of Y1 (scFv) on agglutination of washed platelets was tested at various concentrations of Y1. Platelets were pre-incubated with Y1 scFv, Y17 scFv, Y16-scFv, or a control TM-1 scFv for 4 min at 37° C. before being exposed to ristocetin, an inducer of platelet agglutination and aggregation.
Platelet concentrate in acid-citrate-dextrose (ACD) was obtained from a blood bank, platelets were isolated, washed once in buffer containing ACD and saline in a ratio of 1:7. The platelets were centrifuged at 800 g for 10 min after each wash and were resuspended in Tyrodes solution (2 mM MgCl2, 137 mM NaCl, 2.68 mM KCl, 3 mM NaH2PO4, 0.1% glucose, 5 mM Hepes and 0.35% albumin, pH 7.35) and count the number of cells.
as §1
The effect of Y17-scFv on vWF-dependent agglutination of platelets was tested at different concentrations of Y17.

| Molecule | activity relative to the monomer [1] | concentration used to reach 0.8 OD units [1] [µg/mL] | effect on ristocetin-induced platelet aggregation in PRP (in words) ([2]; concentration not given) | % inhibition ([2]; scFv 38 μg/ml, PRP, ristocetin) [%] | % aggregation ([2]; scFv 38 μg/ml, PRP, ristocetin = 100%) [%] | binding to washed platelets after O-Sialoglycoprotein endoprotease [3] | binding to cathepsin G fragments of glycocalicin ([4]; Western blot) | binding after mocarhagin treatment of washed platelets ([4]; Western blot of platelet lysates) | effect on vWF-dependent platelet agglutination in washed platelets induced by ristocetin (in words) ([5]; final concentration of 10, 25 or 50 μg/ml) | % inhibition ([5]; scFv 25 μg/ml, washed platelets, ristocetin) [%] | % agglutination ([5]; scFv 25 μg/ml, washed platelets, ristocetin = 100%) [%] |
| --- | --- | --- | --- | --- | --- | --- | --- | --- | --- | --- | --- |
| B1 | approximately 100 fold | 0.1 |  |  |  |  |  |  |  |  |  |
| B2 |  |  | did not inhibit | 0 | 100 | abolishes binding | bound to the larger fragment (His1-Val-296), but not to the smaller fragment (His1-Leu275) | binding of Y17 to the N-terminal 45 kDa tryptic fragment | did not inhibit | 15 | 85 |
